Residue numbers refer to the chain shown, from its start. Values belong to the binder of their own block, whether it stands above or below them.
Key:
[1] = target: T1, Human PTK7 Protein, His Tag, Acro Biosystems (human, UniProt Q13308 31-704); assay: BLI, anti-human Fc capture, 50 nM PTK7; 1 = pH dependent binding relative to parent
T1 construct: Bought recombinant protein; also called CCK4; not shown: His tag
T1 sequence: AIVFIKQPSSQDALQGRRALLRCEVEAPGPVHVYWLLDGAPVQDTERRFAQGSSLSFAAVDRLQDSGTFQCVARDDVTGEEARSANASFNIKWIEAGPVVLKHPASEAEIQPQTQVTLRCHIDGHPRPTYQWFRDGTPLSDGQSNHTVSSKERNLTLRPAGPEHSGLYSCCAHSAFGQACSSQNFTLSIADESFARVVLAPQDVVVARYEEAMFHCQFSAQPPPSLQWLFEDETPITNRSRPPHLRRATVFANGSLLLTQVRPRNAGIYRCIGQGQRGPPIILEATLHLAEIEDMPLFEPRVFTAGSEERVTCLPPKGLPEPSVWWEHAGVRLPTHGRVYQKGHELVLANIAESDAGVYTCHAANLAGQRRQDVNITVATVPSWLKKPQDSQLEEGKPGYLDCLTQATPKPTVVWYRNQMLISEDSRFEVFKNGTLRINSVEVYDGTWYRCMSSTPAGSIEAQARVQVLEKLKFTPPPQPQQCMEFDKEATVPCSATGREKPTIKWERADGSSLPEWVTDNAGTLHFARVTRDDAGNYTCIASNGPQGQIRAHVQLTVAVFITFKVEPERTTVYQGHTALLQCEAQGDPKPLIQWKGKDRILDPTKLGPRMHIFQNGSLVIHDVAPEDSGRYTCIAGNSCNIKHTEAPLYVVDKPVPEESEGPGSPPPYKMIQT

[2] = target: T2, Human PTK7 Protein, His Tag, Acro Biosystems (human, UniProt Q13308 31-704); assay: BLI (Octet), antibody on anti-human Fc sensor, 50 nM PTK7, dissociation at pH 7.4 or 5.4; 1 = pH dependent binding relative to parent
T2 construct: Bought protein; also called CCK4; not shown: His tag
T2 sequence: T1 sequence

[3] = target: T3, Human PTK7 Protein, His Tag (Acro Biosystems) (human, UniProt Q13308 31-704); assay: BLI (Octet), antibody on anti-human Fc sensor, 50 nM PTK7; 2 = substantially similar binding
T3 construct: Bought His-tagged recombinant human PTK7; also called CCK4; Tyrosine-protein kinase-like 7
T3 sequence: T1 sequence

B1: MYT11117 (antibody, V domains shown)
VH: EVQLVESGGGLVQPGGSLRLSCTASGFSLSTYAMSWVRQAPGKGLEWVGMIYINHNTYYASWAKGRFTISRDTSKNTVYLQMNSLRAEDTAVYFCARDIGISYYIGVSLWGQGTLVTVSS
VL: EIVMTQSPSTLSASVGDRVIITCQASQSIGTRLSWYQQKPGKAPKLLIYGASKLATGVPSRFSGSGSGAEFTLTISSLQPDDFATYYCLGEYSYTTTDGIAFGQGTKLTVL
notes: MYT9412 HC variant
binding result [1]: binds

B2: MYT11106 (antibody, V domains shown)
VH: B1 VH with S30H, H55D
VL: B1 VL
notes: MYT9412 HC variant
binding result [1]: binds

B3: MYT11107 (antibody, V domains shown)
VH: B1 VH with T31H, H55D
VL: B1 VL
notes: MYT9412 HC variant
binding result [1]: binds

B4: MYT11103 (antibody, V domains shown)
VH: B1 VH with F27H, H55D
VL: B1 VL
notes: MYT9412 HC variant
binding result [1]: binds

B5: MYT11105 (antibody, V domains shown)
VH: B1 VH with L29H, H55D
VL: B1 VL
notes: MYT9412 HC variant
binding result [1]: binds

B6: MYT11244 (antibody, V domains shown)
VH: EVQLVESGGGLVQPGGSLRLSCTASGIDLSSYVMGWVRQAPGKGLEWVGYIYGGGGTYYATWARGRFTISRDTSKNTVYLQMNSLRAEDTAVYFCARAAADFYFNLWGQGTLVTVSS
VL: EIVMTQSPSTLSASVGDRVIITCQASQSISSYLAWYQQKPGKAPKLLIYDISDLASGVPSRFSGSGSGAEFTLTISSLQPDDFATYYCQSYYWIHNSGAAFGQGTKLTVL
notes: LC variant of MYT9460, sub at LCV pos 95 (L3 07)
binding result [2]: binds

B7: MYT11246 (antibody, V domains shown)
VH: B6 VH
VL: B6 VL with H95S, S97H
notes: LC variant of MYT9460, sub at LCV pos 97 (L3 09)
binding result [2]: binds

B8: MYT11245 (antibody, V domains shown)
VH: B6 VH
VL: B6 VL with H95S, N96H
notes: LC variant of MYT9460, sub at LCV pos 96 (L3 08)
binding result [2]: binds

B9: MYT11247 (antibody, V domains shown)
VH: B6 VH
VL: B6 VL with H95S, G98H
notes: LC variant of MYT9460, sub at LCV pos 98 (L3 10)
binding result [2]: binds

B10: MYT11249 (antibody, V domains shown)
VH: B6 VH
VL: B6 VL with H95S, A100H
notes: LC variant of MYT9460, sub at LCV pos 100 (L3 12)
binding result [2]: binds

B11: MYT11253 (antibody, V domains shown)
VH: B6 VH
VL: B6 VL with H95S, N96A
notes: LC variant of MYT9460, Ala sub at LCV pos 96 (L3 08)
binding result [2]: binds

B12: MYT11248 (antibody, V domains shown)
VH: B6 VH
VL: B6 VL with H95S, A99H
notes: LC variant of MYT9460, sub at LCV pos 99 (L3 11)
binding result [2]: binds

B13: MYT10988 (antibody, V domains shown)
VH: EVQLVESGGGLVQPGGSLRLSCTASGFSLSSYAMGWVRQAPGKGLEWVGFINAGGNTYYANWAKGRFTISRDTSKNTVYLQMNSLRAEDTAVYFCARRYSRASGWYHLWGQGTLVTVSS
VL: EIVMTQSPSTLSASVGDRVIITCQASQSISSYLAWYQQKPGKAPKLLIYAASTLASGVPSRFSGSGSGAEFTLTISSLQPDDFATYYCQSYSYSSGIDYGDVFGQGTKLTVL
notes: MYT9359 HC variant; captured on anti-human Fc sensor
binding result [3]: binds

B14: MYT10954 (antibody, V domains shown)
VH: B13 VH with L29H, H107D
VL: B13 VL
notes: as for B13
binding result [3]: binds

B15: MYT10987 (antibody, V domains shown)
VH: B13 VH with Y106H, H107D
VL: B13 VL
notes: as for B13
binding result [3]: binds

B16: MYT11020 (antibody, V domains shown)
VH: B13 VH with H107D
VL: B13 VL with Y99H
notes: MYT9359 LC variant; captured on anti-human Fc sensor
binding result [3]: binds

B17: MYT11019 (antibody, V domains shown)
VH: B13 VH with H107D
VL: B13 VL with D98H
notes: as for B16
binding result [3]: binds

B18: MYT10953 (antibody, V domains shown)
VH: B13 VH with S28H, H107D
VL: B13 VL
notes: as for B13
binding result [3]: binds

B19: MYT10994 (antibody, V domains shown)
VH: B13 VH with H107D
VL: B13 VL with S26H
notes: as for B16
binding result [3]: binds

B20: MYT10972 (antibody, V domains shown)
VH: B13 VH with N61H, H107D
VL: B13 VL
notes: as for B13
binding result [3]: binds

B21: MYT10992 (antibody, V domains shown)
VH: B13 VH with H107D
VL: B13 VL with Q24H
notes: as for B16
binding result [3]: binds

B22: MYT11009 (antibody, V domains shown)
VH: B13 VH with H107D
VL: B13 VL with S56H
notes: as for B16
binding result [3]: binds

Now from value to binder:

binding result [3]: binds
B23: MYT10956 (antibody, V domains shown)
VH: B13 VH with S31H, H107D
VL: B13 VL
notes: as for B13

binding result [3]: binds
B24: MYT10973 (antibody, V domains shown)
VH: B13 VH with W62H, H107D
VL: B13 VL
notes: as for B13

binding result [3]: binds
B25: MYT10965 (antibody, V domains shown)
VH: B13 VH with G54H, H107D
VL: B13 VL
notes: as for B13

binding result [3]: binds
B26: MYT11008 (antibody, V domains shown)
VH: B13 VH with H107D
VL: B13 VL with A55H
notes: as for B16

binding result [3]: binds
B27: MYT10971 (antibody, V domains shown)
VH: B13 VH with A60H, H107D
VL: B13 VL
notes: as for B13

binding result [3]: binds
B28: MYT10996 (antibody, V domains shown)
VH: B13 VH with H107D
VL: B13 VL with S28H
notes: as for B16

binding result [3]: binds
B29: MYT10976 (antibody, V domains shown)
VH: B13 VH with G65H, H107D
VL: B13 VL
notes: as for B13

binding result [3]: binds
B30: MYT10977 (antibody, V domains shown)
VH: B13 VH with A96H, H107D
VL: B13 VL
notes: as for B13

binding result [3]: binds
B31: MYT10995 (antibody, V domains shown)
VH: B13 VH with H107D
VL: B13 VL with Q27H
notes: as for B16

binding result [3]: binds
B32: MYT11007 (antibody, V domains shown)
VH: B13 VH with H107D
VL: B13 VL with L54H
notes: as for B16

binding result [3]: binds
B33: MYT10967 (antibody, V domains shown)
VH: B13 VH with N56H, H107D
VL: B13 VL
notes: as for B13

binding result [3]: binds
B34: MYT10968 (antibody, V domains shown)
VH: B13 VH with T57H, H107D
VL: B13 VL
notes: as for B13

binding result [3]: binds
B35: MYT11015 (antibody, V domains shown)
VH: B13 VH with H107D
VL: B13 VL with S94H
notes: as for B16

binding result [3]: binds
B36: MYT10975 (antibody, V domains shown)
VH: B13 VH with K64H, H107D
VL: B13 VL
notes: as for B13

binding result [3]: binds
B37: MYT11016 (antibody, V domains shown)
VH: B13 VH with H107D
VL: B13 VL with S95H
notes: as for B16
